Residue numbers refer to the chain shown, from its start.
Key:
[1] = target: huNABA-avi-his (hybrid protein N-A1-B3-A2: N and A1 domains of human BGP, B3 domain of human CEA, A2 domain of BGP, with precision protease site, avi tag and (His)6 tag), biotinylated (human); assay: Biacore on immobilized NABA-avi-his; Bivalent Affinity
[2] = target: T1, huNABA-avi-his (hybrid protein N-A1-B3-A2: N and A1 domains of human BGP, B3 domain of human CEA, A2 domain … (human, biotinylated at the avi tag (in vivo, co-transfected biotin ligase))); assay: Biacore, Fab on immobilized NABA-avi-his; column Monovalent Affinity
T1 construct: also called NABA-avi-his reagent; biotinylated NABA
T1 chain: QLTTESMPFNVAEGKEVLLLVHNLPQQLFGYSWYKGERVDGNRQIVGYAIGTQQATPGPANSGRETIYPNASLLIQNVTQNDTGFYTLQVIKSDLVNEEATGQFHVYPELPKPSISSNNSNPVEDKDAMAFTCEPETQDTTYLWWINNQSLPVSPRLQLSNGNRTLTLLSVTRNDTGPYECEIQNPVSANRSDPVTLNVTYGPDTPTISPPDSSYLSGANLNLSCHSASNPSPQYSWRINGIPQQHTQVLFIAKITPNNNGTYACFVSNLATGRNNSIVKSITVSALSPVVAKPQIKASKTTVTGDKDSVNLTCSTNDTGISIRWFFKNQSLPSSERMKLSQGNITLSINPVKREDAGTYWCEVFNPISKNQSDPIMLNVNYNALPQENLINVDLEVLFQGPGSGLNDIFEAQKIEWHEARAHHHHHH

[3] = target: T1, huNABA-avi-his (hybrid protein …); assay: Biacore, column Affinity, CDR-H1 and CDR-H2 rows; antigen not named on the sheet, NABA-avi-his per paragraph 230
[4] = target: T1, huNABA-avi-his (hybrid protein …); assay: Biacore, column Affinity, CDR-H3 rows; antigen not named on the sheet, NABA-avi-his per paragraph 230
[5] = target: T2, human carcinoembryonic antigen (CEA), membrane-bound on cells (human, UniProt P06731 35-685); assay: flow cytometry on MKN45 cells, IgG [upper panel]
T2 construct: whole, on cells; also called CEACAM-5; CD66e
T2 sequence (looked up): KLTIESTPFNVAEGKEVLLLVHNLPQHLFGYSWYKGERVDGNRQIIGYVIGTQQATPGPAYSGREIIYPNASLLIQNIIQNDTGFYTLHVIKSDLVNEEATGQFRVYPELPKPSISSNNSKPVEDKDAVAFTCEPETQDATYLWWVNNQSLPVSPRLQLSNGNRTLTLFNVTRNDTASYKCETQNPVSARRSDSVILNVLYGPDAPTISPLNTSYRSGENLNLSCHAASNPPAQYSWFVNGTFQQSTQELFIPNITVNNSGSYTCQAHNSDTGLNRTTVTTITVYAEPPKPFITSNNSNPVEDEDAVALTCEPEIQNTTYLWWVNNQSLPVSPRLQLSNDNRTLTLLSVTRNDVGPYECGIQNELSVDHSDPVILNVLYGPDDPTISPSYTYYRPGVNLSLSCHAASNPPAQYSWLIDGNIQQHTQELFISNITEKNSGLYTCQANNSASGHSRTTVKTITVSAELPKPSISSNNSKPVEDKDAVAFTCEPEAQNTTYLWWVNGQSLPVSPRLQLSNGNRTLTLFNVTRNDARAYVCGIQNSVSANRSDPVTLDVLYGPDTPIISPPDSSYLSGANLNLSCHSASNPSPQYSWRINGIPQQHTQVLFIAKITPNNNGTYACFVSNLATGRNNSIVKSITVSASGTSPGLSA
Description: (§1) An affinity matured heavy chain variable region construct, CH7A rF9, and an affinity matured light chain variable region construct, CL1A rH11, were paired with the parent light chain variable region construct and the heavy chain variable region construct, respectively, and with each other. All antibodies were converted into human IgG1/kappa and binding to the CEA-positive cell-line MKN45 was measured by flow cytometry. […] The matured light chain shifts the EC50 values to lower numbers, whereas the matured heavy chains (rF9 in FIG. 6, and rB9 in FIG. 15) shift the total fluorescence signal intensity in a flow-cytometry measurement. […] The combination of these two chains increases the affinity even further.

[6] = target: T2, human carcinoembryonic antigen (CEA), …; assay: flow cytometry on MKN45 cells, IgG1/kappa
Description: as §1

[7] = target: T2, human carcinoembryonic antigen (CEA), …; assay: flow cytometry on CEA positive MKN45 cells, IgG [lower panel]
Description: as §1

[8] = target: T1, huNABA-avi-his (hybrid protein …); assay: Biacore on immobilized NABA-avi-his; Bivalent Affinity
[9] = target: T1, huNABA-avi-his (hybrid protein …); assay: Biacore, column Affinity, CDR-H1 and CDR-H2 rows; antigen not named on the sheet, NABA-avi-his per paragraph 230
[10] = target: T1, huNABA-avi-his (hybrid protein …); assay: Biacore, column Affinity, CDR-L1 and CDR-L2 rows; antigen not named on the sheet, NABA-avi-his per paragraph 230
[11] = target: T1, huNABA-avi-his (hybrid protein …); assay: Biacore SPR, Fab; antigen not named on the sheet, NABA-avi-his per paragraph 230
[12] = target: T1, huNABA-avi-his (hybrid protein …); assay: Biacore, column Affinity, CDR-L1 and CDR-L2 rows (QNVGTN and PLI-YSASYRYS); antigen not named on the sheet, NABA-avi-his per paragraph 230
[13] = target: T2, human carcinoembryonic antigen (CEA), …; assay: FACS on MKN-45 cells
Description: CH1A1 includes the M69F/T71L double point mutation. The latter three variants have the entire frameworks 1, 2, or 3, respectively, replaced by the murine counterpart. […] In this assay, cell binding of the CH1A-based antibody variants to CEA-expressing MKN-45 cells was analyzed at various concentrations. The affinity-matured light chain 2F1 was identical for all antibodies tested except for the parental antibody where the original light chain CL1A was used. Mean fluorescence was determined by FACS analysis. […] The DLS assay was performed using 1 mg/ml of the antibodies in a buffer of 20 mM Histidine and 140 mM NaCl at pH 6.0. The assay was conducted starting at 25° C. with an incremental temperature increase of 0.05° C./min up to 70° C. All antibodies tested in this assay had 2F1 as the light chain

B1: H3 Full (5) 19 (Fab, V domains shown)
VH: QVQLVQSGSELKKPGASVKVSCKASGYTFTEFGMSWVRQAPGQGLEWMGWINTKTGEATYVEEFKGRFVFSLDTSVSTAYLQISSLKAEDTAVYYCARWDAFEYVKALDYWGQGTTVTVSS
VL: DIQMTQSPSSLSASVGDRVTITCKASQNVGTNVAWYQQKPGKAPKLLIYSASYRYSGVPSRFSGSGSGTDFTLTISSLQPEDFATYYCHQYYTYPLFTFGQGTKLEIK
In the case of B1, the Kd [1] is reported as 0.19 nM, the koff [1] is reported as 0.000175 s⁻¹ and the kon [1] is reported as 902000 M⁻¹ s⁻¹. The Kd [2] was 24 nM, the koff [2] was 0.0013 s⁻¹ and the kon [2] was 54200 M⁻¹ s⁻¹. It also gave a Kd [3] of 26 nM and a Kd [4] of 26 nM.

B2: antibody with parent heavy chain variable region CH7A and affinity matured light chain variable region CL1A rH11 (antibody, V domains shown)
VH: B1 VH with S35N, A101F, F102Y, E103D, K106E, L108M
VL: B1 VL with N28T, G30S, T31A, S50L, S56R
notes: The suffix G2(1) is not explained; also called CH7A, CL1ArH11; CH7A, CL1A rH11 G2(1)
In the case of B2, the “EC50 (read off the curve)” value [5] is reported as about 0.5 µg/mL and the “EC50 (read off the curve)” value [6] is reported as about 0.3 µg/mL.

B3: antibody with affinity matured heavy chain variable region CH7A rB9 and affinity matured light chain variable region CL1A rH11 G2(1) (antibody, V domains shown)
VH: B1 VH with S35N, T55S, A101F, F102Y, E103D, K106E, L108M
VL: B1 VL with N28T, G30S, T31A, S50L, S56R
notes: also called CH7A rB9, CL1A rH11 G2(1); CH7ArB9, CL1A rH11G2(1)
In the case of B3, the “EC50 (read off the curve)” value [7] is reported as about 0.5 µg/mL.

B4: antibody with heavy chain variable region CH7A and affinity matured light chain variable region CL1A rH7 (antibody, V domains shown)
VH: B1 VH with S35N, A101F, F102Y, E103D, K106E, L108M
VL: B1 VL with N28K, G30L, S50L
notes: also called CH7A, CL1ArH7
For B4, the “EC50 (read off the curve)” value [5] was about 0.7 µg/mL.

B5: humanized PR1A3 antibody comprising heavy chain variable region construct CH7A and light chain variable region construct CL1A (antibody, human IgG1, V domains shown)
VH: B1 VH with S35N, A101F, F102Y, E103D, K106E, L108M
VL: B1 VL
notes: also called CH7A CL1A; CH7A, CL1A
B5 was tested, and the “EC50 (read off the curve)” value [7] was about 0.6 µg/mL, the Kd [8] was 2 nM and the koff [8] was 0.000552 s⁻¹. For the same binder, the kon [8] was 282000 M⁻¹ s⁻¹ and the “EC50 (read off the curve)” value [6] was about 0.6 µg/mL.

B6: PR1A3 (Fab, V domains shown)
VH: B1 VH with S35N, A101F, F102Y, E103D, K106E, L108M
VL: B1 VL
notes: also called PR1A3 wt/wt; pMS22
B6 was tested, and the Kd [9] was 3680 nM, the Kd [10] was 3.68 µM and the Kd [2] was 3680 nM. It also gave a koff [2] of 0.0248 s⁻¹, a kon [2] of 6740 M⁻¹ s⁻¹ and a Kd [4] of 3680 nM.

B7: anti-CEA Fab with affinity matured heavy chain CH7A H4E9 and unmatured light chain CL1A (Fab, V domains shown)
VH: B1 VH with S35N, V61I, A101F, F102Y, E103D, K106E, L108M
VL: B1 VL
notes: Fab format, bacterially expressed; also called CH7A H4E9 + CL1A
For B7, the Kd [11] was 518 nM, the Kd [9] was 402 nM and the Kd [2] was 402 nM. The koff [2] was 0.0021 s⁻¹, the kon [2] was 5220 M⁻¹ s⁻¹ and the Kd [12] was 402 nM.

B8: anti-CEA antibody with heavy chain CH1A4 and light chain 2F1 (antibody, V domains shown)
VH: QVQLVQSGAEVKKPGASVKVSCKASGYTFTEFGMNWVRQAPGQGLEWMGWINTKTGEATYVEEFKGRFAFSLETSATTAYLQINNLKNEDTAKYFCARWDFYDYVEAMDYWGQGTTVTVSS
VL: DIQMTQSPSSLSASVGDRVTITCKASAAVGTYVAWYQQKPGKAPKLLIYSASYRKRGVPSRFSGSGSGTDFTLTISSLQPEDFATYYCHQYYTYPLFTFGQGTKLEIKR
For B8, the “EC50 (read off the curve)” value [13] was about 0.8 µg/mL.
